Source: US20170097353A1, “Polymer Viral Compositions” (The Regents of the University of California, priority 2015, published 2017)
Entries after “also recorded” stand apart in the source; their conditions may differ. Ends that are not written are not given here. * marks the point of attachment. Pent4ynoyl = C#CCCC(=O)*

Legend:
[1] = Dynamic light scattering (DLS) size measurement; type: physicochemical
Method: For determination of size, 1 mL of each sample was measured at the same concentration as used for the biological assay. Each sample was measured at least three times at 25° C., with each individual size measurement being the average of 10 runs.

[2] = molecular target: T1, PSMA on LNCaP cells (Homo sapiens, UniProt Q04609); assay: Cell-based phage ELISA, recognition of cell surface PSMA by PEGylated ligands on phage; settings: for binding affinity of dual ligand combinations: 2:1 dual ligand combinations on phage, FIG. 5B; for binding affinity for cell surface PSMA: PEGylated ligand 2 variants, specific/non-specific attachment, with/without PEG4 linker, FIG. 5A
T1 construct: endogenous in cells; host or cells: LNCaP (also LNCaP CSS), glutaraldehyde-fixed on Maxisorp plates
T1 sequence (Q04609 whole entry): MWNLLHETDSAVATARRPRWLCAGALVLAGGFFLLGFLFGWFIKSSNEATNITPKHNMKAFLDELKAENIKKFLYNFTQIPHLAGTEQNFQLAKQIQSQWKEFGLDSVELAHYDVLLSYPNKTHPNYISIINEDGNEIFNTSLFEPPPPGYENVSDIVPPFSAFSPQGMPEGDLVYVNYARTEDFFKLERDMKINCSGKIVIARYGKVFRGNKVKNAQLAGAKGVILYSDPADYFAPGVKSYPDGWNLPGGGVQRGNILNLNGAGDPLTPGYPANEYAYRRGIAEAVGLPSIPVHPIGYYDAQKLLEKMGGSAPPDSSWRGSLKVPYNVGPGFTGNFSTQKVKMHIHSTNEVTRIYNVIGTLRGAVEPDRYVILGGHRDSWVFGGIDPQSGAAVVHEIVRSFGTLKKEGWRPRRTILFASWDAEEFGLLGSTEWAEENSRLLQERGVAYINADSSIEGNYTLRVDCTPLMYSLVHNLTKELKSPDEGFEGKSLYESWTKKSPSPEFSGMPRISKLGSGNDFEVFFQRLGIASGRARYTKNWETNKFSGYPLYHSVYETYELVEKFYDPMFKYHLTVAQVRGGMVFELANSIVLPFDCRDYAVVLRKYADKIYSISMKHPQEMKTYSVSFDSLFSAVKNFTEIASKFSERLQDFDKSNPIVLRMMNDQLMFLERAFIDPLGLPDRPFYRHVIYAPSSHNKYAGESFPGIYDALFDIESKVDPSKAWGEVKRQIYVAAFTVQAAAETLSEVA
Method: Day 1: The cell-based ELISA was performed as previously described by Watanabe et. al. with the following modifications. Cells were detached with Trypsin-EDTA, resuspended in PBS, and then collected by centrifuging at 1200 rpm for 5 min. The cells were further washed with PBS and then concentrated as in the previous step. The concentration of the cells was adjusted to 4.5×10^6 cells/mL in PBS using a hemocytometer, and 100 μL was aliquoted to specific wells of a 96-well microtiter plate (Maxisorp plates from Nunc). The Maxisorp plates used here have a high protein-binding capacity. Thus, the plates can be used to run assays with either the cells or the phage immobilized in the wells. Next, 50 μL of a 0.15% glutaraldehyde in PBS solution was added to the wells at 4° C., and the solution was gently mixed by pipetting. The ELISA plate was then centrifuged at 1200 rpm for 10 min at 4° C., followed by overnight incubation at 4° C.
Day 2: The cell solution was gently removed, and the wells were blocked with 200 μL/well of blocking buffer containing 100 mM glycine, 1% gelatin and 0.1% w/v BSA (bovine serum albumin) in PBS. The plate was incubated overnight (˜20-22 h) at room temperature.
Separately, phage were prepared before attachment to PEG and PEGylated ligands. Phage (10 nM in 100 μL of PBS) and 1 μL of K14-alkyne (525 μM in water) were thoroughly mixed by pipetting ˜25 times. For phage wrapped with PEGylated ligands, phage were mixed with 0.75 μL of K14-Cys (525 μM in water). For mixed wrapping on the phage surface, 0.5 μL of K14-alkyne was pre-mixed with 0.75 μL of K14-Cys, and then mixed with 100 μL of 10 nM phage. The solution was shaken at room temperature for 15 min on an orbital shaker. Next, 2 μL of PEGylated ligand (625 μM in water) was added to the appropriate wells. For the dual ligand combinations, the PEGylated ligands were pre-mixed in the desired ratio (a 2:1 molar ratio for example), and then 2 μL of the mixture was added to the appropriate wells. The solutions were gently mixed by pipetting, and incubated overnight at 4° C.
Day 3: Next, the click reaction was performed, as previously described, but with the following modifications. To buffer the pH, triethylammonium acetate was added to a final concentration of 50 mM, followed by the addition of 1.5 μL of 1 mM azide-functionalized PEG. The solutions were mixed by pipetting. Next, ascorbic acid was added to a final concentration of 1 mM and the solutions were mixed by gently pipetting. Then, copper sulfate was added to a final concentration of 1.5 mM, followed by pipetting to mix the solutions. Water was added to the other wells to maintain consistent phage concentrations. The plate was incubated at room temperature for 30 min.
The wells of the ELISA plate were then incubated with the phage samples. The blocking buffer was removed and the wells were gently washed two times with PBS. Next, the phage solution was added to the respective wells and incubated for 45 min. The phage solution was removed, and the wells were washed three times with 300 μL/well of wash buffer PT (0.05% Tween-20 in PBS), once with PBS, and then incubated with horseradish peroxidase-conjugated anti-M13 antibody (100 μL/well, 1:5000 dilution in PBS) for 40 min. The wells were washed three times with PT and once with PBS. The plate was then developed by incubating with HRP substrate solution (100 μL/well; 1 mg/mL o-phenylenediamine dihydrochloride and 0.02% w/v H2O2) in citric acid buffer (50 mM citric acid, 50 mM Na2HPO4, pH 5.0). The HRP activity was measured spectrophotometrically at 450 nm using a microtiter plate reader (Bio-Tek). The absorbance at 630 nm was subtracted from the absorbance at 450 nm to eliminate background.

[3] = molecular target: T2, PSMA (Homo sapiens, UniProt Q04609); settings: genetically encoded, phage-displayed ligands [4,10]; cited from earlier work
T2 construct: The effective detection of PSMA shed by LNCaP cells, in androgen sensitive and androgen independent cells; endogenous in cells; host or cells: culture supernatant of LNCaP and LNCaP CSS cells
T2 sequence (Q04609 whole entry): as above

For “K14-Cys: oligolysine (K14) peptide with cysteine, wraps the phage, SEQ ID NO:2 (KKKKKKKKKKKKKKC; not fully specified (C-terminus))”, the average cross-sectional diameter ([1]; DLS backscatter mode, scattering angle 173°, FIG. 3A) was 50.0 nm.
In the case of “K14-alkyne: alkyne-functionalized oligolysine (K14) peptide that wraps the phage, SEQ ID NO:1 (Pent4ynoyl-KKKKKKKKKKKKKK-NH2; SMILES C#CCCC(=O)N[C@@H](CCCCN)C(=O)N[C@@H](CCCCN)C(=O)N[C@@H](CCCCN)C(=O)N[C@@H](CCCCN)C(=O)N[C@@H](CCCCN)C(=O)N[C@@H](CCCCN)C(=O)N[C@@H](CCCCN)C(=O)N[C@@H](CCCCN)C(=O)N[C@@H](CCCCN)C(=O)N[C@@H](CCCCN)C(=O)N[C@@H](CCCCN)C(=O)N[C@@H](CCCCN)C(=O)N[C@@H](CCCCN)C(=O)N[C@@H](CCCCN)C(N)=O)”, the “PSMA recognition / binding affinity with PEG spacers” value ([2]; dual ligand combination P100SP-P4-2+P100SP-P4-1 with or without spacers, LNCaP cells, FIG. 6) is reported as “no effect on binding affinity”.
In the case of “P100NSP-2+P100NSP-1: phage wrapped with 2:1 dual ligand combination of P100NSP-2 and P100NSP-1 (peptide 1 SECVEVFQNSCDW; peptide 2 CALCEFLG)”, the “binding affinity of dual ligand combinations” value ([2]; LNCaP cells) is reported as “only a modest improvement” and the “recognition of PSMA on LNCaP cells” value ([2]; different ratios of the two PEGylated, phage-wrapped ligands, FIG. 4) is reported as “maximize the recognition of PSMA on LNCaP cells”.
In the case of “P100NSP-2: PEG100, non-specific attachment to ligand 2; bioconjugated to phage wrapped with K14-Cys (SECVEVFQNSCDW-NH2; not fully specified (N-terminus); cysteine pairing not given here; also: PEG100 attached non-specifically)”, the “binding affinity for LNCaP cells” value ([2]; phage wrapped with K14-Cys and individual PEGylated ligand, FIG. 14) is reported as “higher affinity for LNCaP cells compared to P100NSP-1”.
For “P100NSP-P4-2+P100NSP-P4-1: phage wrapped with dual ligand combination, non-specific attachment with PEG4 linker (peptide 1 SECVEVFQNSCDW-NH2; peptide 2 CALCEFLG-NH2; not fully specified (N-terminus); cysteine pairing not given here; also: PEG100 non-specific attachment with PEG4 linker)”, the “binding affinity of dual ligand combinations” value ([2]; LNCaP cells) was “drop in affinity; also recorded: affinity equivalent to P100NSP-P4-2”.
For “P100SP-2: PEG100, specific attachment to ligand 2; bioconjugated to phage wrapped with K14-Cys (SECVEVFQNSCDW-NH2; not fully specified; cysteine pairing not given here; also: specific N-terminal attachment to Mal-PEG100 via triazole)”, the “binding affinity for cell surface PSMA” value [2] was “higher binding affinity for cell surface PSMA than P100NSP-2”.
For “P100SP-P4-2+P100SP-P4-1: phage wrapped with dual ligand combination in a 2:1 ratio, specific attachment with PEG4 linker (peptide 1 SECVEVFQNSCDW-NH2; peptide 2 CALCEFLG-NH2; not fully specified (N-terminus); cysteine pairing not given here; also: mixture of two PEG100 conjugates (ligand 2 and ligand 1, 2:1) with PEG4 linker, specific N-terminal triazole attachment)”, the “binding affinity of dual ligand combinations” value ([2]; LNCaP cells) was “significant increase in binding affinity”.
For “P100SP-P4-2: PEG100, specific attachment, PEG4 linker, ligand 2; on phage wrapped with K14-Cys (SECVEVFQNSCDW-NH2; not fully specified (N-terminus); cysteine pairing not given here; also: PEG100, specific attachment, PEG4 linker)”, the “binding affinity for cell surface PSMA” value [2] was “most effective architecture” and the “increase in cross-sectional diameter” value ([1]; DLS backscatter mode, relative to previous wrapping step, FIGS. 3A-3B) was 10 nm.
In the case of “PEGylated oligolysine: K14-alkyne pre-conjugated to azide PEG7, 22 or 45 by click reaction, then applied to phage (Pent4ynoyl-KKKKKKKKKKKKKK-NH2; also: alkyne click-conjugated (triazole) to azide PEG7, 22 or 45)”, the “change in the cross-sectional diameter of the treated phage” value ([1]; DLS, phage treated with pre-formed PEGylated oligolysine (data not shown)) is reported as “no significant change”.
For SECVEVFQNSCDW [ligand-2], the “higher affinity to PSMA than ligand-1” value [3] is given as over 100 fold.
